Laboratory results taken from US20260001935.

System: aflibercept
Sequence (chain, as listed by the source): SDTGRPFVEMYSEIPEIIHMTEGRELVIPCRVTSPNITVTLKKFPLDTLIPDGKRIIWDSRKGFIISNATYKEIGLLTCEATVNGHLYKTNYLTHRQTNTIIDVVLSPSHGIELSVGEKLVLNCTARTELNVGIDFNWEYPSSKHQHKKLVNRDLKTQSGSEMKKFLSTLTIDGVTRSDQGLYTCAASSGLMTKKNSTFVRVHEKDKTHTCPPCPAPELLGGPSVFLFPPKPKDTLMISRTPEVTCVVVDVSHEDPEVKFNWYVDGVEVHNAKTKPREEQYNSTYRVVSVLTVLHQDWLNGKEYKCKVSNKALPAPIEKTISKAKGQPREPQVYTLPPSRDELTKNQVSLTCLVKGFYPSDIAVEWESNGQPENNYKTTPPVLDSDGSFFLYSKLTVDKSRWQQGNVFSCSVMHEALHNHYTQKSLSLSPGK

Sequence of cathepsin D (Chinese hamster ovary host cell protein; recombinant CHO Cathepsin D with mmh tag) (chain, as listed by the source): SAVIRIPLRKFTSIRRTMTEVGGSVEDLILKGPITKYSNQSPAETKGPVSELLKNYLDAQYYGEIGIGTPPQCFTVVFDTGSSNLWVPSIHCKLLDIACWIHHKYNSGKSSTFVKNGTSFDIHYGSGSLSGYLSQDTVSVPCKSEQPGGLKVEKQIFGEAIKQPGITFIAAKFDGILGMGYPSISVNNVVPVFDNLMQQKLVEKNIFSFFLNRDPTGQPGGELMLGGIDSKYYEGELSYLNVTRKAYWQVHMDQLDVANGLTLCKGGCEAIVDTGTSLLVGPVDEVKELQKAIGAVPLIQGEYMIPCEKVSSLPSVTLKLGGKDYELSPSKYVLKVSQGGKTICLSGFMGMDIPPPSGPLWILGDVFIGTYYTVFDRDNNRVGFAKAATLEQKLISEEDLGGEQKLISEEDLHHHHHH

## cathepsin D (Chinese hamster ovary host cell protein; recombinant CHO Cathepsin D with mmh tag)
  NR-1 band formation, and Y/L cleavage: the results demonstrated a correlation between spiked-in cathepsin D and NR-1 band formation, and Y/L cleavage
